Experimental data as given in article PMC11464796.

Molecular target: Msm RNAP core, recombinant (α, ω, β–β′ fusion with C-terminal His8) (Mycobacterium smegmatis) (UniProt A0QSL8)

ATPase activity of the HelD–core and HelD–holoenzyme complexes against free HelD: 2.5 fold
B1: Msm HelD, wild type, recombinant tag-less (enzyme)
chain: MSGRDYEDELQSERDYVAGLYARLDAERAQSQRRYAAALREHGGTAVERDAEVRALAKDIARLNVADNGLCFGRLDTLDDARLYIGRLGIFDRDNDFEPLLLDWRAPMARPFYVATAANPENMRRRRQFHTLGRKVVDFTDEILGRPTGAEHDATNDAALLAAVNAPRGEGMRDIVATIQAEQDQVIRLDHTGVLVIEGGPGTGKTVVALHRVAYLLYTYRKQMERHGVLVVGPTPAFLDHIGRVLPSLGESDAVFMTPGDFVPGLHVTAEDTPEAAEVKGSLKILDVLKAAVADRQELPSEPIPIDLSDVTMRIDAETAKWARDEARKTGLPHNEARAEFVDVVTYVVTERAVARIGRGWLTRDDKHAWEKMRADVVGELEDHEQFNAALDALWPILTPEDVLAQLYTSHERLRAAGAPECLWRADGEAWTVSDVPLLDELVDLLGRNKAADEAAERERREEEAYAAGVLDLMVDREDLMDDEDHLLAQDLIDAEELADRFKEQDNRELSERAAADREWTYGHVVVDEAQELSEMDWRLLMRRCPRRSFTIVGDLAQRRSPAGARSWGAMLDSYVPGRWVYKSLSVNYRTPAEIMAVAAAVLAEFAPDATPPDSVRACGVAPWARQVTDDDIASAIAEFVSEEAGREGTSVVIGPPDVPGTVPPSETKGLEFDAVLVVEPERILADGPRGAAELYVALTRATQRLGVLYRDALPQALAGLAEGDAAATVEQRTSA
